Assay results taken from patent publication US6482410B1, “Cytotactin derivatives that stimulate attachment and neurite outgrowth, and methods of making same” (The Scripps Research Institute, priority 1994, dated 2002).
Entries after “also recorded” stand apart in the source; their conditions may differ.

B1: CTfn3: CT:GST fusion protein, fibronectin type III repeat III, residues 774-864 of SEQ ID NO 4 (protein)
chain: LDAPSQIEAKDVTDTTALITWSKPLAEIEGIELTYGPKDVPGDRTTIDLSEDENQYSIGNLRPHTEYEYEVTLISRRGDMESDPAKEVFVT
modifications: left off: a dimerising Fc or GST
B2: CTfn6: CT:GST fusion protein, fibronectin type III repeat VI, residues 1318-1398 of SEQ ID NO 4 (protein)
chain: VVGSPKGISFSDITENSARVSWTPPRSRVDSYRVSYVPITGGTPNVVTVDGSKTRTKLVKLVPGVDYNVNIISVKGFEESE
modifications: left off: a dimerising Fc or GST
B3: CTfg: CT:GST fusion protein, entire fibrinogen domain, residues 1570-1810 of SEQ ID NO 4 (protein)
chain: SMRSKMIQTVFTTTGLLYPYPKDCSQALLNGEVTSGLYTIYLNGDRTQPLQVFCDMAEDGGGWIVFLRRQNGKEDFYRNWKNYVAGFGDPKDEFWIGLENLHKISSQGQYELRVDLRDRGETAYAVYDKFSVGDAKTRYRLRVDGYSGTAGDSMTYHNGRSFSTFDKDNDSAITNCALSYKGAFWYKNCHRVNLMGRYGDNNHSQGVNWFHWKGHEYSIQFAEMKLRPSSFRNLEGRRKRA
modifications: left off: a dimerising Fc or GST

System: chicken fibroblast cell line SL29
Assay: Cell attachment assay, fibroblasts on protein-coated solid support
Assay type: cell-based
Conditions: for SL29 fibroblast attachment to coated substrate (words): CT coated at 20 μg/ml, binding fragments at 0.75 μM, non-binding at three times that, 1 hour; for spreading of SL29 cells on substrate: coated at 0.75 μM
Description: In the cell attachment assays, a single cell suspension was allowed to settle for a fixed period of time onto a solid support that has been coated with the different CT-derived proteins to be tested for cell attachment (Friedlander, et al., J. Cell Biol. 107: 2329-2340 (1988)). After removing the unbound and loosely bound cells by washing, the attachment and morphology of those cells remaining on the dish were analyzed.
Solid supports, consisting of a circular array of CT or CT:GST fusion proteins bound to a dish, were prepared as follows for the cell attachment assay.
For the initial study, non tissue-culture treated polystyrene plates (Falcon 1008) were spotted with 2 μl of a 0.5 to 1.5 μM solution of CT in PBS for 30 minutes to coat a specific area on the dish with CT. CT was isolated from chicken brain or from fibroblast culture supernatant as described in Crossin, PNAS 88: 11403-11407 (1991) and Hoffman et al., J. Cell Biol. 106: 519-532 (1988). CT was placed in a circular array near the center of the dish and incubated at 37° C. for 30 minutes. After CT had adsorbed to the dish, the central portion of the dish was washed once with 250 μl of 20% (w/v) BSA in PBS. Non-specific binding sites on the dish were then blocked with 250 μl of 20% (w/v) BSA in PBS by incubation for 2 to 3 hours at room temperature.
For the subsequent study with the CT:GST fusion proteins, non tissue-culture treated polystyrene plates (Falcon 1008) were spotted with 2 μl of a 0.5 to 1.5 μM solution of CT:GST fusion protein in PBS as prepared in Example 5.A.2 or GST in PBS for 30 minutes to coat a specific area on the dish with CT:GST fusion protein or GST. The proteins to be tested were placed in a circular array near the center of the dish and incubated at 37° C. for 30 minutes. After the proteins adsorbed to the dish, the central portion of the dish was washed once with 250 μl of 20% (w/v) BSA in PBS. Non-specific binding sites on the dish were then blocked with 250 μl of 20% (w/v) BSA in PBS by incubation for 2 to 3 hours at room temperature.
The chicken fibroblast cell line SL29 (ATCC CRL 1590) was grown to confluence in Dulbecco's Minimum Essential Medium (DMEM; Gibco-BRL, Gaithersburg, Mass.) with 10% (v/v) fetal calf serum (FCS; Gibco-BRL) with penicillin and streptomycin. The cells were passaged the night prior to the assay and seeded at a density of 1:2. Cells were harvested in calcium, magnesium-free Hank's balanced salt solution (CMF-HBSS, Gibco-BRL) with 20 mM Hepes buffer and 5 mM EDTA. Harvested cells were washed in attachment buffer (CMF-HBSS with 10 mM Hepes, 1 mM CaCl2, 1 mM MgCl2, 0.1 mM MnCl2, and 2% (w/v) bovine serum albumin (BSA)) three times. The number of cells was quantitated by counting the cells in a hemocytometer. The cells were resuspended in attachment buffer to a density of 6×10^5 cells/ml.
Chicken fibroblasts, DRG, and solid supports (dishes) coated with CT for use in the cell attachment assays were prepared as described in Examples 5.A.2-4, respectively. The chicken fibroblasts and DRG at a density of 6×10^5 cells/ml were added to the prepared dishes and incubated at 37° C. in 5% CO2 for 1 hour. The dishes were then washed three times in PBS with gentle swirling to remove unattached cells, fixed in 1% glutaraldehyde in PBS, and viewed by phase contrast microscopy. The number of bound cells was determined using a 10× objective with an eyepiece reticle. The number of cells was determined in four fields for each fusion protein dot as the number of cells bound per […]. CT was tested in triplicate. The number of cells bound for CT was expressed as the average of the twelve measurements±standard deviation […].
CT, coated at a concentration of 20 μg/ml, was used as a solid support for SL29 fibroblast attachment. […] Fragments of CT were generated using the pGEX fusion protein system, as described in Example 1. The cell attachment assay was performed essentially as described above for the cell attachment assay to intact CT. […]

| Molecule | SL29 fibroblast attachment to coated substrate (words) | spreading of SL29 cells on substrate | SL29 fibroblast attachment to coated substrate (words) (listed as Ctfn6) | SL29 fibroblast attachment to coated substrate (words) (listed as sixth repeat) |
| --- | --- | --- | --- | --- |
| B1 | robust SL29 cell attachment was supported; also recorded: readily attached; also recorded: attached well | exhibited cell spreading; also recorded: spreading of cells was observed | – | – |
| B2 | robust SL29 cell attachment was supported; also recorded: supports both fibroblast and neuronal cell attachment | little or no spreading | support fibroblast and neuronal cell attachment | fibroblast attachment activity was localized to the sixth repeat |
| B3 | robust SL29 cell attachment was supported; also recorded: readily attached; also recorded: attached well | little or no spreading | – | – |
